Results reported in article PMC9482650, “Quantitative fragmentomics allow affinity mapping of interactomes” (Nature Communications, 2022).

Biological target: T1, PDZD2_2, O15018
T1 sequence (O15018 329-429, limits assumed, looked up): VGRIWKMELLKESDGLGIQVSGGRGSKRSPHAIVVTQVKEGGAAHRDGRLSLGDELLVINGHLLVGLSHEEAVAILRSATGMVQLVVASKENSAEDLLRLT
Assay: holdup assay
Set-up: key: below the threshold = too weak to quantify, mostly under pKd 3.1 to 4
Settings: plain residues with an end cap or a label only (N-terminal biotin on a linker: ado-ado)

Row | Binder | pKd
1 | NPETRDETQL [KCNT1, Q5JUK3] | 3.72

Biological target: T2, PTPN13_1, Q12923
T2 sequence (Q12923 1088-1188, limits assumed, looked up): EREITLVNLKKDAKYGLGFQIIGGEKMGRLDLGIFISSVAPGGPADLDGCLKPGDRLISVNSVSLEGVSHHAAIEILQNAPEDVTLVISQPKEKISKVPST
Assay: holdup assay
Set-up: key: below the threshold = too weak to quantify, mostly under pKd 3.1 to 4
Settings: plain residues with an end cap or a label only (N-terminal biotin on a linker: ado-ado)

Row | Binder | pKd
2 | NPETRDETQL [KCNT1, Q5JUK3] | 3.54

Biological target: T3, GRIP1_2, Q9Y3R0
T3 sequence (Q9Y3R0 145-248, limits assumed, looked up): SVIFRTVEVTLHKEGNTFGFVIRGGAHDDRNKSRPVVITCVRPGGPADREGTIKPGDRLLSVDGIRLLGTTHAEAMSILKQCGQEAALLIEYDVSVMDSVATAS
Assay: holdup assay
Set-up: key: below the threshold = too weak to quantify, mostly under pKd 3.1 to 4
Settings: plain residues with an end cap or a label only (N-terminal biotin on a linker: ado-ado)

Row | Binder | pKd
3 | NPETRDETQL [KCNT1, Q5JUK3] | below the threshold

Biological target: T4, PCLO, Q9Y6V0
T4 sequence (Q9Y6V0 4491-4600, limits assumed, looked up): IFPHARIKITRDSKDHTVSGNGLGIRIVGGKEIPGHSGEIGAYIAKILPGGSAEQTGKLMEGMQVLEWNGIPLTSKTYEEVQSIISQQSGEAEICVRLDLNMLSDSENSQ
Assay: holdup assay
Set-up: key: below the threshold = too weak to quantify, mostly under pKd 3.1 to 4
Settings: plain residues with an end cap or a label only (N-terminal biotin on a linker: ado-ado)

Row | Binder | pKd
4 | NPETRDETQL [KCNT1, Q5JUK3] | below the threshold

Biological target: CASK, O14936
Sequence (O14936 487-570): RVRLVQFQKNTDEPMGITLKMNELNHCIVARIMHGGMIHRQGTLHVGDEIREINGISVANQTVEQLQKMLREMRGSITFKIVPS
Assay: holdup assay
Set-up: key: below the threshold = too weak to quantify, mostly under pKd 3.1 to 4
Settings: plain residues with an end cap or a label only (N-terminal biotin on a linker: ado-ado)

Row | Binder | pKd
5 | NPETRDETQL [KCNT1, Q5JUK3] | below the threshold

Biological target: T5, DFNB31_2, Q9P202
T5 sequence (Q9P202 274-371, limits assumed, looked up): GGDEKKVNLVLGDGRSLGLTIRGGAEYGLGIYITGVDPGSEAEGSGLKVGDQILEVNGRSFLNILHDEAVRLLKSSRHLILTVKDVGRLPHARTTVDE
Assay: holdup assay
Set-up: key: below the threshold = too weak to quantify, mostly under pKd 3.1 to 4
Settings: plain residues with an end cap or a label only (N-terminal biotin on a linker: ado-ado)

Row | Binder | pKd
6 | NPETRDETQL [KCNT1, Q5JUK3] | below the threshold

Biological target: DLG5_1, Q8TDM6
Sequence (Q8TDM6 617-713): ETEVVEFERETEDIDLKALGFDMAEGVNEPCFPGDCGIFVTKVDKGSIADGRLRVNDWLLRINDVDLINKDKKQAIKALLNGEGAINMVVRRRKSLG
Assay: holdup assay
Set-up: key: below the threshold = too weak to quantify, mostly under pKd 3.1 to 4
Settings: plain residues with an end cap or a label only (N-terminal biotin on a linker: ado-ado)

Row | Binder | pKd
7 | NPETRDETQL [KCNT1, Q5JUK3] | below the threshold

Biological target: T6, LRRC7, Q96NW7
T6 sequence (Q96NW7 1440-1537, limits assumed, looked up): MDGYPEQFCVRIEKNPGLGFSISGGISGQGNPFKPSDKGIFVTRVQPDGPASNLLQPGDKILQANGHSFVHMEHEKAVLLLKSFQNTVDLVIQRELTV
Assay: holdup assay
Set-up: key: below the threshold = too weak to quantify, mostly under pKd 3.1 to 4
Settings: plain residues with an end cap or a label only (N-terminal biotin on a linker: ado-ado)

Row | Binder | pKd
8 | NPETRDETQL [KCNT1, Q5JUK3] | below the threshold

Biological target: T7, SYNJ2BP, P57105
T7 sequence (P57105 8-110, limits assumed, looked up): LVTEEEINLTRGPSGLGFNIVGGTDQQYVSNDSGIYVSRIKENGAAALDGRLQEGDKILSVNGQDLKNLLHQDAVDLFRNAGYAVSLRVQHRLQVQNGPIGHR
Assay: holdup assay
Set-up: key: below the threshold = too weak to quantify, mostly under pKd 3.1 to 4
Settings: plain residues with an end cap or a label only (N-terminal biotin on a linker: ado-ado)

Row | Binder | pKd
9 | NPETRDETQL [KCNT1, Q5JUK3] | 4.43

Biological target: T8, SNTG1, Q9NSN8
T8 sequence (Q9NSN8 52-150, limits assumed, looked up): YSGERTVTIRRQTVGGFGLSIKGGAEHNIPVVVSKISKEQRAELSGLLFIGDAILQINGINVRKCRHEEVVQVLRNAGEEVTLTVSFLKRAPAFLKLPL
Assay: holdup assay
Set-up: key: below the threshold = too weak to quantify, mostly under pKd 3.1 to 4
Settings: plain residues with an end cap or a label only (N-terminal biotin on a linker: ado-ado)

Row | Binder | pKd
10 | NPETRDETQL [KCNT1, Q5JUK3] | below the threshold

Biological target: T9, TIAM2, Q8IVF5
T9 sequence (Q8IVF5 885-986, limits assumed, looked up): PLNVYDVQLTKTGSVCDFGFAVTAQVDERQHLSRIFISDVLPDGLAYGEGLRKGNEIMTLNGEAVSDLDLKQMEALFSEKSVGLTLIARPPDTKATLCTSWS
Assay: holdup assay
Set-up: key: below the threshold = too weak to quantify, mostly under pKd 3.1 to 4
Settings: plain residues with an end cap or a label only (N-terminal biotin on a linker: ado-ado)

Row | Binder | pKd
11 | NPETRDETQL [KCNT1, Q5JUK3] | below the threshold

Biological target: FRMPD2_3, Q68DX3
Sequence (Q68DX3 1073-1166): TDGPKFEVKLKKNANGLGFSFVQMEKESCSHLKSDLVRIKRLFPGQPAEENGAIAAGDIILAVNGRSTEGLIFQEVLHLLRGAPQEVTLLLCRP
Assay: holdup assay
Set-up: key: below the threshold = too weak to quantify, mostly under pKd 3.1 to 4
Settings: plain residues with an end cap or a label only (N-terminal biotin on a linker: ado-ado)

Row | Binder | pKd
12 | NPETRDETQL [KCNT1, Q5JUK3] | below the threshold

Biological target: GRIP2_6, Q9C0E4
Sequence (Q9C0E4 648-740): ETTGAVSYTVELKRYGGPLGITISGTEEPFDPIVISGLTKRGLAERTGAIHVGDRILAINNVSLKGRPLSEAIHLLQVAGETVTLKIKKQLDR
Assay: holdup assay
Set-up: key: below the threshold = too weak to quantify, mostly under pKd 3.1 to 4
Settings: plain residues with an end cap or a label only (N-terminal biotin on a linker: ado-ado)

Row | Binder | pKd
13 | NPETRDETQL [KCNT1, Q5JUK3] | below the threshold

Biological target: T10, FRMPD1, Q5SYB0
T10 sequence (Q5SYB0 52-145, limits assumed, looked up): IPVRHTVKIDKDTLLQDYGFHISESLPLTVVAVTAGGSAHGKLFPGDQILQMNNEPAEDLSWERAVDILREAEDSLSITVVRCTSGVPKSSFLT
Assay: holdup assay
Set-up: key: below the threshold = too weak to quantify, mostly under pKd 3.1 to 4
Settings: plain residues with an end cap or a label only (N-terminal biotin on a linker: ado-ado)

Row | Binder | pKd
14 | NPETRDETQL [KCNT1, Q5JUK3] | below the threshold

Biological target: GIPC2, Q8TF65
Sequence (Q8TF65 112-203): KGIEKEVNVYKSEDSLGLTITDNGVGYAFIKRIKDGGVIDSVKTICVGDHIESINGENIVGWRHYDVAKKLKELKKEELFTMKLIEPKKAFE
Assay: holdup assay
Set-up: key: below the threshold = too weak to quantify, mostly under pKd 3.1 to 4
Settings: plain residues with an end cap or a label only (N-terminal biotin on a linker: ado-ado)

Row | Binder | pKd
15 | NPETRDETQL [KCNT1, Q5JUK3] | 3.49

Biological target: T11, PDZRN3_1, Q9UPQ7
T11 sequence (Q9UPQ7 244-349, limits assumed, looked up): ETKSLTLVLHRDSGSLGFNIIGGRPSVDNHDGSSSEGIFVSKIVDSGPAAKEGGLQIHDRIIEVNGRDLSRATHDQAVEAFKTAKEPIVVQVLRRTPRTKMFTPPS
Assay: holdup assay
Set-up: key: below the threshold = too weak to quantify, mostly under pKd 3.1 to 4
Settings: plain residues with an end cap or a label only (N-terminal biotin on a linker: ado-ado)

Row | Binder | pKd
16 | NPETRDETQL [KCNT1, Q5JUK3] | 4.47

Biological target: T12, MPP2, Q14168
T12 sequence (Q14168 180-250, limits assumed, looked up): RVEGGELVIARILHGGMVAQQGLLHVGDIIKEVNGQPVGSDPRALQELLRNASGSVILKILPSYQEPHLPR
Assay: holdup assay
Set-up: key: below the threshold = too weak to quantify, mostly under pKd 3.1 to 4
Settings: plain residues with an end cap or a label only (N-terminal biotin on a linker: ado-ado)

Row | Binder | pKd
17 | NPETRDETQL [KCNT1, Q5JUK3] | below the threshold

Biological target: MAGI1_2, Q96QZ7
Sequence (Q96QZ7 456-580): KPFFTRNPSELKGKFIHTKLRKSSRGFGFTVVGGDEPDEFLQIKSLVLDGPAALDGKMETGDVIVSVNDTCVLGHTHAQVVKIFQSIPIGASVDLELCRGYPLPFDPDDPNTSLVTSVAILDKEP
Assay: holdup assay
Set-up: key: below the threshold = too weak to quantify, mostly under pKd 3.1 to 4
Settings: plain residues with an end cap or a label only (N-terminal biotin on a linker: ado-ado)

Row | Binder | pKd
18 | NPETRDETQL [KCNT1, Q5JUK3] | below the threshold

Biological target: Inadl_3, Q8NI35
Sequence (Q8NI35 359-469): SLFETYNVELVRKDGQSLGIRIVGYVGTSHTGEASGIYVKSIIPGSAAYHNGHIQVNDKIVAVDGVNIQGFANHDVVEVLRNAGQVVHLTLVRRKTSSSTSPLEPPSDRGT
Assay: holdup assay
Set-up: key: below the threshold = too weak to quantify, mostly under pKd 3.1 to 4
Settings: plain residues with an end cap or a label only (N-terminal biotin on a linker: ado-ado)

Row | Binder | pKd
19 | NPETRDETQL [KCNT1, Q5JUK3] | below the threshold

Biological target: T13, TX1BP3, O14907
T13 sequence (O14907 10-122, limits assumed, looked up): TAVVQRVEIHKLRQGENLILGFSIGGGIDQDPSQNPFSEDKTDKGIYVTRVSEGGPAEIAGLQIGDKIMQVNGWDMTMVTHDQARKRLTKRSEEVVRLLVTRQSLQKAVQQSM
Assay: holdup assay
Set-up: key: below the threshold = too weak to quantify, mostly under pKd 3.1 to 4
Settings: plain residues with an end cap or a label only (N-terminal biotin on a linker: ado-ado)

Row | Binder | pKd
20 | NPETRDETQL [KCNT1, Q5JUK3] | 3.62

Biological target: T14, DFNB31_1, Q9P202
T14 sequence (Q9P202 135-233, limits assumed, looked up): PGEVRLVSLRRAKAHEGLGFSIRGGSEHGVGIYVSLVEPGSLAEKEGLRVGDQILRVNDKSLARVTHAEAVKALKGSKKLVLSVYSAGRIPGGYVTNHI
Assay: holdup assay
Set-up: key: below the threshold = too weak to quantify, mostly under pKd 3.1 to 4
Settings: plain residues with an end cap or a label only (N-terminal biotin on a linker: ado-ado)

Row | Binder | pKd
21 | NPETRDETQL [KCNT1, Q5JUK3] | 4.02

Biological target: SNX27, Q96L92
Assay: holdup assay
Set-up: key: below the threshold = too weak to quantify, mostly under pKd 3.1 to 4
Settings: plain residues with an end cap or a label only (N-terminal biotin on a linker: ado-ado)

Row | Binder | pKd
22 | NPETRDETQL [KCNT1, Q5JUK3] | 5.22

Biological target: FRMPD4, Q14CM0
Sequence (Q14CM0 67-160): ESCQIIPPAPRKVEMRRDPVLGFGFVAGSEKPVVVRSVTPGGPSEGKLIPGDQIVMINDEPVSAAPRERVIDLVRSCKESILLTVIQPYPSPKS
Assay: holdup assay
Set-up: key: below the threshold = too weak to quantify, mostly under pKd 3.1 to 4
Settings: plain residues with an end cap or a label only (N-terminal biotin on a linker: ado-ado)

Row | Binder | pKd
23 | NPETRDETQL [KCNT1, Q5JUK3] | 4.84
